Experimental data reported in PMC7703752, “Proteome-level assessment of origin, prevalence and function of leucine-aspartic acid (LD) motifs” (Bioinformatics, 2019).
Where no end group is shown, it is not given here. The star is where a group is joined. FITC = O=C1OC2(c3ccc(O)cc3Oc3cc(O)ccc32)c2ccc(NC(=S)*)cc21; Ahx = NCCCCCC(=O)O

T1: FAT domain of human FAK (892-1052) (human, UniProt Q05397 892-1052)
T1 construct: focal adhesion kinase (FAK), human, FAT domain, residues 892-1052; 15N-labelled (M9 minimal medium) in the NMR titrations; also called FAK FAT; focal adhesion targeting domain; source: E. coli BL21, expressed as GST-fusion protein (pGexP2), purified as described previously (Arold et al., 2002)
T1 sequence (looked up): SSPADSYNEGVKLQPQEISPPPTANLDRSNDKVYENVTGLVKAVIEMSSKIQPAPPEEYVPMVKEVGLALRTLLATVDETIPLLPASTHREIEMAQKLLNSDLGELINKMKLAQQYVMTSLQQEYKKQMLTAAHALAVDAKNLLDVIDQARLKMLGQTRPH

T2: Human α-parvin-CHC (residues 242-372) (human, UniProt Q9NVD7 242-372)
T2 construct: α-parvin, human, C-terminal CH domain, residues 242-372; also called second CH domain of α-parvin; source: E. coli BL21, expressed as GST-fusion protein (pGex 6P1), purified as described previously (Lorenz et al., 2008)
T2 sequence (looked up): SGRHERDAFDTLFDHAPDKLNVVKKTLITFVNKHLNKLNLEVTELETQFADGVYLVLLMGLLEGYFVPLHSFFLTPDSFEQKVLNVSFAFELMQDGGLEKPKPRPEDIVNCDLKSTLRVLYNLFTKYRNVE

T3: FAT domain of human FAK (892–1052) (human, UniProt Q05397 892-1052)
T3 construct: focal adhesion kinase (FAK), human, FAT domain, residues 892-1052; 15N-labelled for the NMR titrations; Purification and fate of the GST are told only in the Supplementary Material and in the cited work (Arold et al., 2002); also called FAK FAT; four-helix FAT domain from FAK; source: E. coli BL21, expressed as GST-fusion protein
T3 sequence (looked up): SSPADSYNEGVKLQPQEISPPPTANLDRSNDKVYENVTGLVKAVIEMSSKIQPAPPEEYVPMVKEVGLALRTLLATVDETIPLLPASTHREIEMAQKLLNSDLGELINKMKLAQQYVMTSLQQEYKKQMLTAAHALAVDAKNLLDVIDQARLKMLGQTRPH

T4: Human α-parvin-CHC (residues 242–372) (human, UniProt Q9NVD7 242-372)
T4 construct: α-parvin, human, second CH domain (CHC), residues 242-372; Purification and fate of the GST are told only in the Supplementary Material and in the cited work (Lorenz et al., 2008); also called second CH domain of α-parvin; source: E. coli BL21, expressed as GST-fusion protein
T4 sequence (looked up): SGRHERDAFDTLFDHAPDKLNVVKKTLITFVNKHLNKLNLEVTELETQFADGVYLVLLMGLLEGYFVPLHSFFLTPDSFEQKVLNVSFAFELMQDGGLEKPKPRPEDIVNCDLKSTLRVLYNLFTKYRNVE

T5: FAT domain of human FAK (892–1052) (human, UniProt Q05397 892-1052)
T5 chain: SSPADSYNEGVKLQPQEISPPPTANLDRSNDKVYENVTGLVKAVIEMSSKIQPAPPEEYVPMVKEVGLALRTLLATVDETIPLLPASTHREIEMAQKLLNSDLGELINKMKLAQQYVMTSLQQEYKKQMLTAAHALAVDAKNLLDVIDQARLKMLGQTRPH

T6: Human α-parvin-CHC (residues 242–372) (human, UniProt Q9NVD7 242-372)
T6 chain: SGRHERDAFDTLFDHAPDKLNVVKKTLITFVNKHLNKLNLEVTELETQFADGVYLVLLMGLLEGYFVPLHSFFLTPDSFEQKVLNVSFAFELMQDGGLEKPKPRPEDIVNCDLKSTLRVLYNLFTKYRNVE

T7: rat GIT1 (647-770) (rat, UniProt Q9Z272 647-770)
T7 chain: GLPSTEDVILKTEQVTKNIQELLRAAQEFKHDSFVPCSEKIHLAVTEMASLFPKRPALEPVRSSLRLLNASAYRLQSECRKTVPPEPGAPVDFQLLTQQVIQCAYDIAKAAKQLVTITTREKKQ

T8: rat GIT1 (647-770) (rat, UniProt Q9Z272 647-770)
T8 construct: also called GIT1 FAH; GIT1 FAH domain; source: E. coli BL21, expressed as GST-fusion protein (pGex-4T1), purified as described previously (Schmalzigaug et al., 2007)
T8 sequence (looked up): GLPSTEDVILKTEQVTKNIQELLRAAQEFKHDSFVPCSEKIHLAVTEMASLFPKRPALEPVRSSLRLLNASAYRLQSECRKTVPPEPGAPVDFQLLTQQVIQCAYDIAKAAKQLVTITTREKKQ

B1: paxillin LD4 peptide, FITC-Ahx-labelled (peptide)
peptide: {FITC-Ahx}-SASSATRELDELMASLSD
notes: paxillin, human, LD4 motif with flanking residues; also called labelled LD4; FITC-Ahx-labelled LD4; source: synthetic peptide, bought: GenScript
B2: EPB41L5 (Band 4.1-like protein 5) LD motif peptide (peptide)
peptide: ATDELDALLASLTENLID
modifications: also: N-terminal FITC-Ahx only in labelled form
notes: predicted LD motif of human EPB41L5 (Band 4.1-like protein 5); also called E41L5; YMO1; source: synthetic peptide, bought: GenScript
B3: RALGAPA1 LD motif peptide (peptide)
peptide: EDVLDELLQYLGVT
modifications: also: N-terminal FITC-Ahx only in labelled form
notes: predicted LD motif of human RALGAPA1; also called RGPA1; source: synthetic peptide, bought: GenScript
B4: paxillin LD4 peptide, unlabelled (peptide)
peptide: SASSATRELDELMASLSD
notes: paxillin, human, LD4 motif with flanking residues; form without label, used in ACA, DSF, ITC and NMR; source: synthetic peptide, bought: GenScript
B5: RALGAPA1 LD motif peptide, FITC-Ahx-labelled (peptide)
peptide: {FITC-Ahx}-EDVLDELLQYLGVT
notes: core motif 1680-1689; labelled form, used in direct anisotropy and MST; also called RGPA1; source: synthetic peptide, bought: GenScript
B6: C16orf71 LD motif peptide, FITC-Ahx-labelled (peptide)
peptide: {FITC-Ahx}-EAWDLDDILQSLQGQ
notes: Uncharacterized protein C16orf71, human; core motif 267-276; labelled form, used in direct anisotropy and MST; also called CP071; source: synthetic peptide, bought: GenScript

Columns and labels:
[1] = biological target: T1, FAT domain of human FAK (892-1052); test: fluorescence polarisation; direct anisotropy: FAT or α-parvin titrated, FITC-Ahx-labelled LD4 at 0.1 μM; 20 mM HEPES pH 7.5, 150 mM NaCl, 2 mM EDTA, 2 mM DTT, 0.005% Tween-20; room temperature; details: both partners purified
[2] = biological target: T2, Human α-parvin-CHC (residues 242-372); test: as above; details: both partners purified
[3] = biological target: T3, FAT domain of human FAK (892–1052); test: fluorescence polarisation + MST + ITC + other: differential scanning fluorimetry; synthesized peptides against recombinant LDBDs in vitro; direct anisotropy with labelled candidate peptides, anisotropy competition of unlabelled peptides against fluorescently labelled known LD motifs, ITC, MST and DSF summed up together; 25°C, 20 mM HEPES pH 7.5, 150 mM NaCl, 2 mM EDTA, 1 mM TCEP, unless stated otherwise; details: both partners purified
[4] = biological target: T4, Human α-parvin-CHC (residues 242–372); test: as above; details: both partners purified
[5] = biological target: T5, FAT domain of human FAK (892–1052); test: FP
[6] = biological target: T6, Human α-parvin-CHC (residues 242–372); test: FP
[7] = biological target: T7, rat GIT1 (647-770); test: FP
[8] = biological target: T5, FAT domain of human FAK (892–1052); test: ITC
[9] = biological target: T7, rat GIT1 (647-770); test: ITC
[10] = biological target: T5, FAT domain of human FAK (892–1052); test: MST
[11] = biological target: T6, Human α-parvin-CHC (residues 242–372); test: MST
[12] = biological target: T7, rat GIT1 (647-770); test: MST
[13] = biological target: T1, FAT domain of human FAK (892-1052); test: differential scanning fluorimetry; 10 μM protein, peptide at 100 and 250 μM, SYPRO Orange; 20 mM HEPES pH 7.5, 150 mM NaCl, 2 mM EDTA, 1 mM TCEP; 20 to 95 °C; details: both partners purified
[14] = biological target: T2, Human α-parvin-CHC (residues 242-372); test: fluorescence polarisation; anisotropy competition assay (ACA): 10 μM FAT or 25 μM α-parvin with 0.1 μM FITC-Ahx-LD4; unlabelled peptide added at 100 and 250 μM; details: both partners purified
[15] = biological target: T1, FAT domain of human FAK (892-1052); test: fluorescence polarisation + MST; the 'quantitative' methods, summed up in one sentence for each peptide: direct anisotropy (protein serially diluted, FITC-Ahx peptide 0.1 μM; 20 mM HEPES pH 7.5, 150 mM NaCl, 2 mM EDTA, 2 mM DTT, 0.005% Tween-20; room temperature) and MST (protein diluted from 560 μM FAT or 530 μM α-parvin, labelled peptide 0.1 μM, 0.05% Tween-20, 25 °C); ITC in selected cases; details: both partners purified
[16] = biological target: T2, Human α-parvin-CHC (residues 242-372); test: as above; details: both partners purified
[17] = biological target: T8, rat GIT1 (647-770); test: fluorescence polarisation + MST; 'additional DA and MST experiments' with GIT1: GIT1 serially diluted (MST from 630 μM, standard capillaries, 25 °C), FITC-Ahx peptide 0.1 μM; 20 mM HEPES pH 7.5, 150 mM NaCl, 2 mM EDTA, 2 mM DTT, Tween-20; details: both partners purified
[18] = biological target: T1, FAT domain of human FAK (892-1052); test: fluorescence polarisation + MST; the 'quantitative' methods, summed up in one sentence for each peptide: direct anisotropy (protein serially diluted, FITC-Ahx peptide 0.1 μM; 20 mM HEPES pH 7.5, 150 mM NaCl, 2 mM EDTA, 2 mM DTT, 0.005% Tween-20; room temperature) and MST (protein diluted from 560 μM FAT or 530 μM α-parvin, labelled peptide 0.1 μM, 0.05% Tween-20, 25 °C); ITC in selected cases; details: both partners purified; remark: listed apart in the source
[19] = biological target: T2, Human α-parvin-CHC (residues 242-372); test: as above; details: both partners purified; remark: listed apart in the source

Binder	binding result [3]	binding result [4]	Kd [5] [µM]	Kd [6] [µM]	Kd [7] [µM]	Kd [10] [µM]	Kd [11] [µM]	also measured
B1								Kd [1]: 10 µM; Kd [2]: 25 µM
B2	binds	binds	2.7	28.2	83.6	13	4	Kd [8]: 6 µM; Kd [9]: 39.3 µM
B3	binds	binds	43.6	49.4	88	42.5	25.7	Kd [12]: 77.5 µM
B4								binding result [13]: binds; binding result [14]: binds
B5								binding result [15]: binds; binding result [16]: binds; Kd [17]: ~80 µM
B6								binding result [18]: binds; binding result [19]: binds
